Values of other authors as cited in article PMC4475429.

Biological target: PKA RIα (Homo sapiens) (UniProt P10644)
Sequence (P10644 whole entry): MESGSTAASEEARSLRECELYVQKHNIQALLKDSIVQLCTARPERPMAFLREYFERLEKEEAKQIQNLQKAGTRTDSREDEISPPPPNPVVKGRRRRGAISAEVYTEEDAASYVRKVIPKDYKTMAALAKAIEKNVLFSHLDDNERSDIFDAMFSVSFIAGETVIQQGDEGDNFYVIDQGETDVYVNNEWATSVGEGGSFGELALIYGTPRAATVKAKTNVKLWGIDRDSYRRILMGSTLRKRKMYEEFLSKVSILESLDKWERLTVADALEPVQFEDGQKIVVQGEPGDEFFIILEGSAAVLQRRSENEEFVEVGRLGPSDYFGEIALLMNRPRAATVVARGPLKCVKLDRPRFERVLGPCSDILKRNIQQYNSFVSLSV

Ht31, sequence (Q12802 whole entry): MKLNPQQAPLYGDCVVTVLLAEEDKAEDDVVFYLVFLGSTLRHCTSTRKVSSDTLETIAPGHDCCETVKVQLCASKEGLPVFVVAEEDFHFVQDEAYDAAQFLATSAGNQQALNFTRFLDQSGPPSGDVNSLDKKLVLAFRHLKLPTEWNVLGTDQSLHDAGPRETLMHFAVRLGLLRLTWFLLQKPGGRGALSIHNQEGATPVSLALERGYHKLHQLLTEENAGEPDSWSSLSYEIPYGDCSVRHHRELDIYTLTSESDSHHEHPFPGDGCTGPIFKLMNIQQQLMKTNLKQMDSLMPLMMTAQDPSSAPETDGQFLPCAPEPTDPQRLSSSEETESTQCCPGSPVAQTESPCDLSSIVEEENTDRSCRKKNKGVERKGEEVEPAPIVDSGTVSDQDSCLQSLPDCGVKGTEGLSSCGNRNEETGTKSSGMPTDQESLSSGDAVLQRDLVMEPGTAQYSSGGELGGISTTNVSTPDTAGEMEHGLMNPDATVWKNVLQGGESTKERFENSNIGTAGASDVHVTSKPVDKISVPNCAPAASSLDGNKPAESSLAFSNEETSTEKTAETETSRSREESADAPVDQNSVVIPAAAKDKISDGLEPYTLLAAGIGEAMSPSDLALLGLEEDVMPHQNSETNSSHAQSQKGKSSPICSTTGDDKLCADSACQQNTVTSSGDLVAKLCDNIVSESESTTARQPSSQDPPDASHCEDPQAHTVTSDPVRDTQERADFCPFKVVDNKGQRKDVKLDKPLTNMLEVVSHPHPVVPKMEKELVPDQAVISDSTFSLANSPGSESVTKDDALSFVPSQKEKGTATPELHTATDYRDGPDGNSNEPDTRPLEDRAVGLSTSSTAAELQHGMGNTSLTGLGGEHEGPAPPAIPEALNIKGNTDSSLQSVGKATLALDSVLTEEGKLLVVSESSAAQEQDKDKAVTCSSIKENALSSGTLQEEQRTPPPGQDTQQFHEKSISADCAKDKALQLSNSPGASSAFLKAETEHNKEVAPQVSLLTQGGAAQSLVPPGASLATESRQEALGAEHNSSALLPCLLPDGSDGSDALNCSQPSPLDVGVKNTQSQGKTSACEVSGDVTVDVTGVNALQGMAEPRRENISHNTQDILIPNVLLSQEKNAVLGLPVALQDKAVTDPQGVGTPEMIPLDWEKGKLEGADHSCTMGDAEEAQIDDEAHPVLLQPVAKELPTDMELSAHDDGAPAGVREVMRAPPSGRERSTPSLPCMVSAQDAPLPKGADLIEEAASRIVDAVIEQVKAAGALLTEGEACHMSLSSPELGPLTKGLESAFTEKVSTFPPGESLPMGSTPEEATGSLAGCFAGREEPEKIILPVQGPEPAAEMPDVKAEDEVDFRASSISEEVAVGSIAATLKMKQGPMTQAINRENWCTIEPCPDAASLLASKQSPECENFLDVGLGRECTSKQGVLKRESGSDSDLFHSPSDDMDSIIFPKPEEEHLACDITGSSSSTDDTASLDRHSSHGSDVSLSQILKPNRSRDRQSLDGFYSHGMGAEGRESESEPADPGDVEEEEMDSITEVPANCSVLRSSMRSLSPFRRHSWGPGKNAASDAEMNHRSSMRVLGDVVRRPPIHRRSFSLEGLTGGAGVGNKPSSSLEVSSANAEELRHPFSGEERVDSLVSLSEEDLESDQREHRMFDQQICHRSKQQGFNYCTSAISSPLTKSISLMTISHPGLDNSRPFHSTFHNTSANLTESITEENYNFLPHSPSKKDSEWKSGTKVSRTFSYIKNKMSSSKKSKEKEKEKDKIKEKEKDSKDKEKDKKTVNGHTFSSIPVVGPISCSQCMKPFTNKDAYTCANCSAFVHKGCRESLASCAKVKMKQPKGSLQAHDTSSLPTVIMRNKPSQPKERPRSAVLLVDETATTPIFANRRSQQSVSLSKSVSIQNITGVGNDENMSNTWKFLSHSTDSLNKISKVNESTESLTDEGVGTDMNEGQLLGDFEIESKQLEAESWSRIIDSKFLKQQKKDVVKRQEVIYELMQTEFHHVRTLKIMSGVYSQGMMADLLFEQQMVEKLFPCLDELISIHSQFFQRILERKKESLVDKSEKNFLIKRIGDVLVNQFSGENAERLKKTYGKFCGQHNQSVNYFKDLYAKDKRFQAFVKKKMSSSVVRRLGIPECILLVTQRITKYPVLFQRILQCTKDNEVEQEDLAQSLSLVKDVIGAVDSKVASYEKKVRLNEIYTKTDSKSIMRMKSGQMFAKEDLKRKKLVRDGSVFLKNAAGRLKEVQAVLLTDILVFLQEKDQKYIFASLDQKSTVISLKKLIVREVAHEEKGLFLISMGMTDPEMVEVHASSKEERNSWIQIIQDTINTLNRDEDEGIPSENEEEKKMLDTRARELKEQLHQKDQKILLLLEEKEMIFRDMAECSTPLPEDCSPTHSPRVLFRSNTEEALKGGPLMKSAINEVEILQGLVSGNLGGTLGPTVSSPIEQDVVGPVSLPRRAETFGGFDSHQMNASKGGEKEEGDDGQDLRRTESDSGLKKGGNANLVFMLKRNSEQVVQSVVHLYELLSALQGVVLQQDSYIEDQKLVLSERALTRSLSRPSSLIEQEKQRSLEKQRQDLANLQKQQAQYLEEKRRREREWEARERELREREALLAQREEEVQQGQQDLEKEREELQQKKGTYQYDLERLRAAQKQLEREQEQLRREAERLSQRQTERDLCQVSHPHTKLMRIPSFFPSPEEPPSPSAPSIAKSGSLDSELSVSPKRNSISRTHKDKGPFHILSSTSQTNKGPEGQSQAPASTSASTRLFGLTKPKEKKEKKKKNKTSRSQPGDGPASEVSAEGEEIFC

- Kd: 2100 nM
Substance: Ht31 (from UniProt Q12802)
